Patent US20150344570A1 (published 2015)
Positions count from the first letter of the chain named. Numbers in names are those of the source.

B1: H240-Kn192/H240-Hl204/L73-k0 (antibody, human IgG1, kappa)
heavy 1: QDQLVQSGAEVKKPGASVKVSCKASGFNIKDTYIQWVRQAPGQGLEWMGRIDPLRKQTKYREKFEGRVTITADTSTNTAYMELSSLRSEDTAVYYCVRSGREFDYWGQGTLVTVSSASTKGPSVFPLAPSSKSTSGGTAALGCLVKDYFPEPVTVSWNSGALTSGVHTFPAVLQSSGLYSLSSVVTVPSSSLGTQTYICNVNHKPSNTKVDKKVEPKSCDKTHTCPPCPAPEYNWGPMVFLFPPKPKDTLMISRTPEVTCVVVDVSDEDPEVKFNWYVDGVEVHNAKTKPREKQYNATYRVVSVLTVLHQDWLNGKEYKCKVSNKDLPAPIEKTISKAKGQPREPQVCTLPPSRDELTKNQVSLWCLVKGFYPSDIAVEWESNGQPENNYKTTPPVLDSDGSFFLYSKLTVDKSRWQQGNVFSCSVMHEALHNHYTQKSLSLSP
heavy 2: QDQLVQSGAEVKKPGASVKVSCKASGFNIKDTYIQWVRQAPGQGLEWMGRIDPLRKQTKYREKFEGRVTITADTSTNTAYMELSSLRSEDTAVYYCVRSGREFDYWGQGTLVTVSSASTKGPSVFPLAPSSKSTSGGTAALGCLVKDYFPEPVTVSWNSGALTSGVHTFPAVLQSSGLYSLSSVVTVPSSSLGTQTYICNVNHKPSNTKVDKKVEPKSCDKTHTCPPCPAPELLTGPSVFLFPPKPKDTLMISRTPEVTCVVVDVSHEEPEVKFNWYVDGVEVHNAKTKPREEQYNSTYRVVSVLTVLHQDWLNGKEYKCKVSNDALPKPEEETISKAKGQPREPQVYTLPPSRCELTKNQVSLSCAVKGFYPSDIAVEWESNGQPENNYKTTPPVLDSDGSFFLVSKLTVDKSRWQQGNVFSCSVMHEALHNHYTQKSLSLSP
light: DIQMTQSPSSLSASVGDRVTITCRASQDIHKYIAWYQQKPGQAPRLLIQYTSTLQPGVPSRFSGSGSGTDYTFTISSLQPEDIATYYCLQYEQLRTFGGGTKVEIKRTVAAPSVFIFPPSDEQLKSGTASVVCLLNNFYPREAKVQWKVDNALQSGNSQESVTEQDSKDSTYSLSSTLTLSKADYEKHKVYACEVTHQGLSSPVTKSFNRGEC
notes: Y235N and E294K in H240-Kn120; G236T and I332E in H240-Hl068; also called H240-Kn192/H240-HI204/L73-k0
B2: H240-Kn202/H240-Hl076/L73-k0 (antibody, human IgG1, kappa)
heavy 1: B1 heavy 1 with Y233E, N234Q, D269E, K293E, D326A
heavy 2: B1 heavy 2 with T235G, K329M, E331I
light: B1 light
B3: H240-Kn184/H240-Hl068/L73-k0 (antibody, human IgG1, kappa)
heavy 1: B1 heavy 1 with Y233E, N234Y, K293E
heavy 2: B1 heavy 2 with T235G, E331I
light: B1 light
B4: H240-Kn208/H240-Hl076/L73-k0 (antibody, human IgG1, kappa)
heavy 1: B1 heavy 1 with Y233D, N234Q, D269E, K293E, D326A
heavy 2: B1 heavy 2 with T235G, K329M, E331I
light: B1 light
B5: H240-Kn193/H240-Hl204/L73-k0 (antibody, human IgG1, kappa)
heavy 1: B1 heavy 1 with K293R
heavy 2: B1 heavy 2
light: B1 light
notes: Y235N and E294R in H240-Kn120; G236T and I332E in H240-Hl068; also called H240-Kn193/H240-HI204/L73-k0
B6: H240-Kn201/H240-Hl076/L73-k0 (antibody, human IgG1, kappa)
heavy 1: B1 heavy 1 with Y233F, N234Q, D269E, K293E, D326A
heavy 2: B1 heavy 2 with T235G, K329M, E331I
light: B1 light
B7: H240-Kn217/H240-Hl068/L73-k0 (antibody, human IgG1, kappa)
heavy 1: B1 heavy 1 with Y233D, N234Y, K293E
heavy 2: B1 heavy 2 with T235G, E331I
light: B1 light
B8: H240-Kn221/H240-Hl068/L73-k0 (antibody, human IgG1, kappa)
heavy 1: B1 heavy 1 with Y233T, N234Y, K293E
heavy 2: B1 heavy 2 with T235G, E331I
light: B1 light
B9: H240-Kn199/H240-Hl068/L73-k0 (antibody, human IgG1, kappa)
heavy 1: B1 heavy 1 with Y233L, N234Y, K293E
heavy 2: B1 heavy 2 with T235G, E331I
light: B1 light
B10: GpH7-A5/GpH7-B3-03-20W/GpL16-k0 (antibody, human IgG1, kappa)
heavy 1: not shown
heavy 2: not shown
light: DIVMTQSPLSLPVTPGEPASISCQASESLVHSNRNTYLHWYLQKPGQSPQLLIYKVSNRFSGVPDRFSGSGSGTDFTLKISRVEAEDVGVYYCSQNTHVPPTFGQGTKVEIERTVAAPSVFIFPPSDEQLKSGTASVVCLLNNFYPREAKVQWKVDNALQSGNSQESVTEQDSKDSTYSLSSTLTLSKADYEKHKVYACEVTHQGLSSPVTKSFNRGEC
notes: G236W in the GpH7-B3 chain only; also called He Ab G236_20W; GpH7-A5/GpH7-B3 variant G236_20W/GpL16-k0
B11: GpH7-TA5/GpH7-B3/GpL16-k0 (antibody, human IgG1, kappa)
heavy 1: QVQLVQSGAEVKKPGASVTVSCKASGYTFTDYEMHWIRQPPGEGLEWIGAIDPKTGDTAYSESFQDRVTLTADKSTSTAYMELSSLTSEDTAVYYCTRFYSYTYWGQGTLVTVSSASTKGPSVFPLAPSSKSTSGGTAALGCLVKDYFPEPVTVSWNSGALTSGVHTFPAVLQSSGLYSLSSVVTVPSSSLGTQTYICNVNHKPSNTKVDKKVEPKSCDKTHTCPPCPAPEYLGGPSVFLFPPKPKDTLMISRTPEVTCVVVDVSHEDPEVKFNWYVDGVEVHNAKTKPREEQYNATYRVVSVLTVLHQDWLNGKEYKCKVSNKALPAPIEKTISKAKGQPREPQVYTLPPSRKELTKNQVSLTCLVKGFYPSDIAVEWESNGQPENNYKTTPPVLDSDGSFFLYSKLTVDKSRWQQGNVFSCSVMHEALHNRYTQKSLSLSP
heavy 2: not shown
light: B10 light
notes: H1 L234Y and S298A
B12: GpH7-TA6/GpH7-B3/GpL16-k0 (antibody, human IgG1, kappa)
heavy 1: B11 heavy 1 with Y232L, G234W
heavy 2: not shown
light: B10 light
notes: H1 G236W and S298A
B13: GpH7-TA1/GpH7-B3-15-02A/GpL16-k0 (antibody, human IgG1, kappa)
heavy 1: B11 heavy 1 with A296S
heavy 2: not shown
light: B10 light
notes: H1 L234Y; H2 S298A
B14: GpH7-TA2/GpH7-B3-01-15Y/GpL16-k0 (antibody, human IgG1, kappa)
heavy 1: B11 heavy 1 with Y232L, G234W, A296S
heavy 2: not shown
light: B10 light
notes: H1 G236W; H2 L234Y
B15: GpH7-A5/GpH7-B3-01-15Y/GpL16-k0 (antibody, human IgG1, kappa)
heavy 1: not shown
heavy 2: not shown
light: B10 light
notes: L234Y in the GpH7-B3 chain only; also called He Ab L234_15Y; GpH7-A5/GpH7-B3 variant L234_15Y/GpL16-k0
B16: GpH7-TA3/GpH7-B3-03-20W/GpL16-k0 (antibody, human IgG1, kappa)
heavy 1: B11 heavy 1 with Y232L
heavy 2: not shown
light: B10 light
notes: H1 S298A; H2 G236W
B17: GpH7-TA4/GpH7-B3/GpL16-k0 (antibody, human IgG1, kappa)
heavy 1: B11 heavy 1 with G234W, A296S
heavy 2: not shown
light: B10 light
notes: H1 L234Y and G236W

Key:
FcγRIIIa F = FcγRIIIa F (human, UniProt P08637 17-208); assay: SPR (Biacore), KD
Sequence of FcγRIIIa F (P08637 17-208): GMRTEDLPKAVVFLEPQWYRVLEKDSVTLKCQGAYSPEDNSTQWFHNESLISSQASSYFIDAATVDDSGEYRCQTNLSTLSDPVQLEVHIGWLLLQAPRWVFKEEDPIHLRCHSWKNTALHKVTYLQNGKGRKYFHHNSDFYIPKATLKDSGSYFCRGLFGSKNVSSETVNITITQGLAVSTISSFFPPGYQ

FcγRIIIa V = FcγRIIIa V (human, UniProt P08637 17-208); assay: SPR (Biacore), KD
Sequence of FcγRIIIa V (P08637 17-208): as above

[1] = target: T1, FcγRIIIa extracellular domain with C-terminal His tag (human, UniProt P08637 17-208); assay: SPR (Biacore), one H chain altered; HeCon Ab GpH7-A5/GpH7-B3/GpL16-k0 = 100
T1 sequence (P08637 17-208): as above

[2] = target: T1, FcγRIIIa extracellular domain with …; assay: SPR (Biacore), relative binding activity; GpH7-A5/GpH7-B3/GpL16-k0 = 100

Binder	fold binding activity against H240-Kn033/H240-Hl033/L73-k0 (FcγRIIIa F) [fold]	fold binding activity against H240-Kn033/H240-Hl033/L73-k0 (FcγRIIIa V) [fold]	FcγRIIIa BINDING ACTIVITY [2] [%]	further results
B1	–	–	–	fold binding against the variant before introduction of I332E and Y235N (FcγRIIIa F): 2 times; fold binding against the variant before introduction of I332E and Y235N (FcγRIIIa V): 8 times
B2	≥ 100	≥ 100	–	–
B3	≥ 100	≥ 100	–	–
B4	≥ 100	≥ 100	–	–
B5	–	–	–	fold binding against the variant before introduction of I332E and Y235N (FcγRIIIa F): 2 times; fold binding against the variant before introduction of I332E and Y235N (FcγRIIIa V): 8 times
B6	≥ 100	≥ 100	–	–
B7	≥ 100	≥ 100	–	–
B8	≥ 100	≥ 100	–	–
B9	≥ 100	≥ 100	–	–
B10	–	–	140	He/Con_3a [1]: 135%
B11	–	–	208	–
B12	–	–	228	–
B13	–	–	142	–
B14	–	–	130	–
B15	–	–	131	He/Con_3a [1]: 130%
B16	–	–	70	–
B17	–	–	168	–
